Reference: the RNAGym collection of RNA variant scans (doi:10.1073/pnas.2313332121)

B1: TPR t1 (parent)
chain: GACCAAUCUGCCCUCAGAGCUCGAGAACAUCUUCGGAUGCAGAGGAGGCAGGCUUCGGUGGCGCGAUAGCGCCAACGUCCUCAACCUCCAAUGCAUCCCACCACAUGAUGAUGCCUGAAGAGCCUUGGUUUUUUG

Variants of: B1
Assay: polymerase ribozyme fitness, log enrichment relative to wild type (log ratio); higher = more active; in vitro selection for triplet polymerase activity
Procedure, shortened: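 Fitness measures genotype enrichment against wild-type enrichment on a logarithmic scale, with inverse-variance-weighted averaging of replicates. The logarithm is base 2, and genotypes were kept only with ≥10 input reads and ≥1 read per output in Illumina sequencing. The sequenced libraries came from one triplicate in vitro selection round, including frozen incubation at −7 °C, of PCR-built, transcribed mutant libraries of each subunit of a heterodimeric triplet polymerase ribozyme.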

In order of falling “polymerase ribozyme fitness (log ratio)” value:
1. GACCAAUCUGCCCUGAGAGCUCGAGAACAUCUUCGGAUGCAGAGGAGGCAGGCUUCGGUGGCGCGAUAGCGCCUACGUCCUCAACCUCCAAUGCAUCCCACCACAUGAUGAUGCCUUAAGAGCCUUGGUUUUUUG [C15G A74U G117U]  -0.0169
2. GACCAAUCUGCCCUGAGAGCUCGAGAACAUCUUCGGAUGCAGAGGAGGCAGGCUUCGGUGGCGCGAUAGCGCAAACGUCCUGAACCUCCAAUGCAUCCCACCACAUGAUGAUGCCUUAAGAGCCUUGGUCUUUUG [C15G C73A C82G G117U U130C]  -0.6
3. GACCAAUCUGCCCUGAGAGCUCGAGAACAUCUUCGGAUGCAGAGGAGGCAGGCUUCGGUGGCGCGAUAGCGCCAACGUCCUCAACCUCCAAUGCAUCCCACCACAUGAUGAUGCCUGUAGAGUCUUGGUUUUUUG [C15G A118U C123U]  -0.83
4. GACCAAUCUGCCCUAAGAGCUCGAGAACAUCUUCGGAUGCAGAGGAGGCAGGCUUCGGUGGCGCGAUAGCGCCAACGUCCUCAACCUCCAAUGCAUCCCACCACAUGAUGAUGCCUGAAGAGCCUUGGUUUCUUG [C15A U132C]  -1.46
5. GACCAAUCUGCCCUAAGAGCUCGAGAACAUCUUCGGAUGCAGAGGAGGCAGGCUUCGGUGGCGCGAUAGCGCCAACGUCCUCAACCUCCAAUGCAUCCCACCACAUGAUGAUGCCUGAAGAGCCUUGGUUUAUUG [C15A U132A]  -2.04
6. GACCAAUCUGCCCUGAGAGCUCGAGAACAUCUUCGGAUGCUGAGGAGGCAGGCUUUGGUGGCGCGAUAGCGCCAACGUCCUCAACCUCCAAUGCACCCCACCACAUGAUGAUGCCUGAAGAGCGUUGGUUUUUUG [C15G A41U C56U U96C C124G]  -2.08
7. GACCAAUCUGCCCUGAGAGCUCGAGAACAUCUUCGGAUGCAGAGGAGGCAGGCUUCGGUGGCGCGAUAGCGCCAACGUCCUCAACCUCCAAUGCAUCCCACCACAUGAUGAUGCCUGAAGAGCCUUGGUUUUUUG [C15G]  -2.16
8. GACCAAUCUGCCCUGAGAGCUCGAGAACAUCUUCGGAUGAAGAGGAGGCAGGCUUCGGUGGCGCGAUAGCGCCAACGUCCUCAACCUCCAAUGCAUCCCACCACAUGAUGAUGCCUGAAGGGCCUUGGCUUUUUG [C15G C40A A121G U129C]  -3.1
9. GACCAAUCUGCCCUAAGAGCUCGAGAACAUCUUCGGAUGCAGAGGAGGCAGGCUUCGGUGGCGCGAUAGCGCCAACGUCCUCAACCUCCAAUGCAUCCCACCACAUGAUGAUGCCUGAAGAGCCUUGGAUUUUUG [C15A U129A]  -3.18
10. GACCAAUCUGCCCUGAGAGCUCGAGAACAUCUUCGGAUGCAGAGGAGGCAGGGUUGGGUGACGCGAUAGCGCCAACGUCCUCAACCUCCAAUGCAUCCCACCACAUGAUGAUGCCUGAAGAGCCUUGGUUUUUUG [C15G C53G C56G G61A]  -3.41
11. GACCAAUCUGCCCUGAGAGCUCGAGAACAUCUUCGGAUGCAGAGGAGGCAGGCUUCGGUGGCGCGAUAGCGCCAACGUCCUCAACCUCCAAUGCCUCCCACCACAUGAUGAUGCCUGAUGAGCCUUGGUUUUUUG [C15G A95C A119U]  -3.82
12. GACCAAUCUGCCCUGAGAGCUCGAGAACAUCUUCGGAUGCAGAGGAGGCAGGUUUCGGUGGCGCGAUAGCGCCAACGUCCUCAAGCUCCAAUGCAUCCCACCACAUGAUGAUGCCUGAAGAGCCUUGGUUUUUUG [C15G C53U C85G]  -4.35
13. GACCAAUCUGCCCUGAGAGCUCGAGAACAUCUUCGGAUGCAGAGGAGGCAGGCUUCGGUGGCGCGUUAGCGCCAACGUCCUCAACCUCCAAUGCAUCCCACCACAUGAUGAUGCCUGAAGAGCCUUGGUUUUUUG [C15G A66U]  -4.55
14. GACCAAUCUGCCCUGAGUGCUCGAGAACAUCUUCGGAUGCAGAGGAGGCAGGCUUCGGUGGCCCGAUAGCGCCAACGUCCUCAACCUCCACUGCAUCCCACCACAUGAUGAUGCCUGAAGAGCCUUGGUUUUUUG [C15G A18U G63C A91C]  -4.66
15. GACCAAUCUGCCCUGAGAGCUCGAGAACAUCUUCGGAUGCAGAGGAGGCAGGCUUCGGUGGCGCGAUAGCGCCUACGUCCUCAACCUACAAUGCAUCCCAUCACAUGAUGAUGCCUGAAGAGCCUUGGUUUUUUG [C15G A74U C88A C101U]  -4.74
16. GACCAAUCUGCCCUGAGAGCUCGAGAACAUCUUCGGAUGCAGAGGAGGCAGGCUUCGGUGGCGCGAUAGAGCCAACGUCCUCAACCUCCAAUGCAUCCCACCACAUGAUGAUGCCUGAAGAGCCUUGGUUUUUUG [C15G C70A]  -5.24
17. GACCAAUCUGCCCUGAGAGCUCGAGAACAUCUUCGGAUGCAGAGGAGGGAGGCUUCGGUGGCGCGAUAGCUCCUACGUCCUCAACCUCCAAUGCAUCCCACCACACGAUGAUGCCUGAAGAGCUUUGGUUUUUUG [C15G C49G G71U A74U U106C C124U]  -5.29
18. GACCAAUCUGCCCUGAGAGCUUGAGAACAUCUUCGGAUGCAGAGGAGGCAGGCUUCGGUGGCGCGAUAGCGCCAACGUCCUCAACCUCCAAUGCAUCCCACCACAUGAUGAUGCCUGAAGAGCCUUGGUUUUUUG [C15G C22U]  -5.53
19. GACCAAUCUGCCCUGAGAGCUCGAGAACAUCUUCGGAUGCAGAGGAGGCAGGCUUCGGUGGCGCGAUAGUGCCAACGUCCUCAGCCUCCAAUGCAUCCCACCACAUGAUGAUGCCUGAAGAGCCUUGGUUUUUUG [C15G C70U A84G]  -5.53
20. GACCAAUCUGCCCUGAGAGCUCGAGAACAUCUUCGGAUGCAGUGGAGGCAGGCUUCGGUGGCGCGAUAGCGCCAACGUCCUCAUCCUCCAAUGCAUCCCACCACAUGAUGAUGCCUGAAGAGCCUUGGUUUUUUG [C15G A43U A84U]  -5.64
21. GACCAAUCUGCCCUGAGAGCUCGAGAACAUCUUCGGAUGCAGAGGAGGCAGGCUUCGGUGGCGCGAUAGGGCCAACGUCCUCAACCUCCAAUGCAUCCCACCACAUGAUGAUGCCUGAAGAGCCUUGGUUUCUUG [C15G C70G U132C]  -6.73
